{"source": "patent US20210340208A1", "about": "(ANWITA BIOSCIENCES, published 2021)", "binders": {"B1": {"name": "hIL-2-anti-HSA A37 (ligand)", "chain": "APTSSSTKKTQLQLEHLLLDLQMILNGINNYENPKLTRMLTAKFYMPKKATELKHLQCLEEELKPLEEVLNLAQSKNFHLRPRDLISNINVIVLELKGSETTFMCEYADETATIVEFLNRWITFSQSIISTLTGSGGSGGSGGSGEVQLVESGGGLVQPGGSLRLSCAASGSTWSINTLAWYRQAPGKQRDLVARISSGGSTYYADSVKGRFTISRDNSKNTLYLQMNSLRAEDTAVYYCYAQSTWYPPSWGQGTLVTVSS", "notes": "fused to anti-HSA VHH; also called IL2 mutein (K32E, F42A, C125S)"}}, "key": {"[1]": {"biological_target": "T1, IL-2Rα-Fc fusion protein (human, UniProt P01589 22-240)", "T1 construct": "also called human IL-2Rα (CD25); CD25; not shown: Fc part and any linker are not described; captured on an anti-human IgG Fc sensor", "T1 sequence": "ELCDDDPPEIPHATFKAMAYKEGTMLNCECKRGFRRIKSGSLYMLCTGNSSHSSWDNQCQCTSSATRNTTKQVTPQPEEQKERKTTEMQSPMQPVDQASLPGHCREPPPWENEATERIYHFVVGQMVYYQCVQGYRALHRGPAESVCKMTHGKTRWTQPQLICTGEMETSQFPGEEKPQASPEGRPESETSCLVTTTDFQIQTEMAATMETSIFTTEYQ", "assay": "BLI (Octet RED96), IL-2Rα-Fc on AHC biosensor", "procedure": "OCTET® RED96 was used to characterize the interactions of a wild-type hIL-2 and hIL-2 muteins with a human IL-2Rα (CD25). Briefly, an IL-2Rα-Fc fusion protein was loaded onto an anti-human IgG Fc capture (AHC) biosensor. The biosensor was then dipped into a solution containing a wild-type hIL-2 (WT IL-2) or an IL-2 mutein at various concentrations. Primary experimental data was analyzed with global fitting to determine a binding affinity (Kd)."}, "[2]": {"biological_target": "T2, IL-2Rα, β, and γ chains on preactivated human CD3 T-cells (human, UniProt P01589 22-272; P14784 27-551; P31785 23-369)", "T2 sequence (looked up) 1": "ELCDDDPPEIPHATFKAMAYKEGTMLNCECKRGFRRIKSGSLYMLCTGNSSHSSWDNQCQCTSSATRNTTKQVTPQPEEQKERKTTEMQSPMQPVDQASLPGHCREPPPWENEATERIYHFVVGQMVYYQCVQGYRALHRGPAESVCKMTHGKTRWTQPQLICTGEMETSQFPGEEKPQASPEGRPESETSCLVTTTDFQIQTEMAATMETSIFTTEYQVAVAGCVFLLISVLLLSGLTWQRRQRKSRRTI", "T2 sequence (looked up) 2": "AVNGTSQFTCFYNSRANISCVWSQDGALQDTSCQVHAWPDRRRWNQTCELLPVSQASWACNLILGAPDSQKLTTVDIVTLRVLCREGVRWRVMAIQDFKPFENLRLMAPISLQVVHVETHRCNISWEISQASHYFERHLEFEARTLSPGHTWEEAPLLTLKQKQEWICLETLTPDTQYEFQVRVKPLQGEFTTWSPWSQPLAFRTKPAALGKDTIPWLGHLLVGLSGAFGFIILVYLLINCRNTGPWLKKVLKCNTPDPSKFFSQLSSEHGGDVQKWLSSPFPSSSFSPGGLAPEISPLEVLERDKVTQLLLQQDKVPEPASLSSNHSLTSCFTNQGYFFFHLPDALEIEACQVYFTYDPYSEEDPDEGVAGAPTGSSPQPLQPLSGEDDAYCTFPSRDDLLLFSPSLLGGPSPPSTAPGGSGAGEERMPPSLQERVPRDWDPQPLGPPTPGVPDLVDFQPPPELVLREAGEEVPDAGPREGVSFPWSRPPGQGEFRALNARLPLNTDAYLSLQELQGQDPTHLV", "T2 sequence (looked up) 3": "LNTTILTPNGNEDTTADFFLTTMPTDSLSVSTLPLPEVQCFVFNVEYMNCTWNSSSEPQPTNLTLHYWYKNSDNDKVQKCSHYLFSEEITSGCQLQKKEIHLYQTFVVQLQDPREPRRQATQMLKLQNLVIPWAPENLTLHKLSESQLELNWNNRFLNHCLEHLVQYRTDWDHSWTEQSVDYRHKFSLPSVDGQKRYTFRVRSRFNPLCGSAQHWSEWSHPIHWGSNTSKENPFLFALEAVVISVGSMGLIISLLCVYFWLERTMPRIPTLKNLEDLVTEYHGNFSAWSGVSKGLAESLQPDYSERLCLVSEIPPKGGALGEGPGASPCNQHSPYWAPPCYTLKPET", "assay": "cell-based or functional assay"}}}
{"binder": "B1", "values": [{"measurement": "binding result", "setting": "[1]", "result": "no binding"}, {"measurement": "EC50 of STAT5 phosphorylation (phospho-STAT5 Tyr694 HTRF)", "setting": "[2]", "result": 0.92, "unit": "nM"}]}
